Test results reported in patent publication US20190359687A1 (Bayer, published 2019).
One block for each binder: values may come before it.

Key:
[1] = biological target: T1, Cynomolgus monkey glycophorin A on Cynomolgus monkey red blood cells (Cynomolgus monkey); test: partition to Cyno RBC, human HemA plasma, 1 min;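 note: FVIII fusion spiked at 1 IU/mL into RBC suspension at whole-blood density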
T1 construct: whole, on cells; also called Cyno GPA; Cyno RBC

[2] = biological target: T1, Cynomolgus monkey glycophorin A on …; test: partition to Cyno RBC, human HemA plasma, 5 min;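 note: FVIII fusion spiked at 1 IU/mL into RBC suspension at whole-blood density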
Description: (§1) To evaluate partition to cynomolgus monkey or human red blood cells, whole blood was draw from Cynomolgus monkey or normal human volunteers in to anticoagulant with 4% sodium citrate (Sigma, St Louis, Mo.). The red blood cells were purified by layering the whole blood on to ficoll followed by low speed centrifugation. The supernatant containing plasma, platelets and white blood cells was discarded and the red blood cell pellet was resuspended in 10 pellet volumes of PBS (50 mM Phosphate buffer, pH7.4, 150 mM NaCl). The red blood cells were then pelleted by slow speed centrifugation and the red blood cells re-suspended in 10 volumes of PBS. This washing step was repeated 4 more times and the red blood cells finally resuspended in a volume of plasma from Hemophilia patients with less than 1% of normal levels of FVIII (GeorgeKing Bio-Medical, Overland Park, Kans.) to generate a total volume equal to the initial blood volume such that the RBC density was equal to that of normal whole blood. BDD and RBC targeted FVIII molecules were then spiked into RBC suspension in HemA plasma at 1 IU/mL, and incubated at room temperature for 2-3 hours with gentle rotation. […] An additional control was performed in which BDD or RBC targeted FVIII molecules were added at 11U/ml into the same human hemophilia A plasma and incubated for 5 minutes and 180 mins. These samples were used to determine the input FVIII activity in the presence of plasma which was used to calculate the percentage of the molecule that was bound to RBC. All plasma samples were then assayed together for FVIII activity using the Coatest SP assay (DiaPharma, Columbus, Ohio). The assay was performed following the manufacturer's instructions in a 96-well plate format. […] The plate was incubated at 37° C. for 10 minutes with shaking between each reagent addition.

[3] = biological target: T2, human glycophorin A on human red blood cells (human, UniProt P02724 20-150); test: partition to human RBC, human HemA plasma, 1 min
T2 construct: whole, on cells; also called human GPA; huGPA
T2 sequence (looked up): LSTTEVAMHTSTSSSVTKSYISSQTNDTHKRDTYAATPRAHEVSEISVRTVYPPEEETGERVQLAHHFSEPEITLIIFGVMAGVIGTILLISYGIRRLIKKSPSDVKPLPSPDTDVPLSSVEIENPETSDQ

[4] = biological target: T2, human glycophorin A on human red blood …; test: partition to human RBC, human HemA plasma, 5 min
[5] = biological target: T1, Cynomolgus monkey glycophorin A on …; test: partition to Cyno RBC, human HemA plasma, 15 min;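 note: FVIII fusion spiked at 1 IU/mL into RBC suspension at whole-blood density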
Description: as §1

[6] = biological target: T1, Cynomolgus monkey glycophorin A on …; test: partition to Cyno RBC, human HemA plasma, 30 min;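 note: FVIII fusion spiked at 1 IU/mL into RBC suspension at whole-blood density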
Description: as §1

[7] = biological target: T1, Cynomolgus monkey glycophorin A on …; test: partition to Cyno RBC, human HemA plasma, 60 min;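 note: FVIII fusion spiked at 1 IU/mL into RBC suspension at whole-blood density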
[8] = biological target: T2, human glycophorin A on human red blood …; test: partition to human RBC, human HemA plasma, 15 min
[9] = biological target: T2, human glycophorin A on human red blood …; test: partition to human RBC, human HemA plasma, 30 min
Description: (§2) The supernatant containing plasma, platelets and white blood cells was discarded and the red blood cell pellet was resuspended in 10 pellet volumes of PBS (50 mM Phosphate buffer, pH7.4, 150 mM NaCl). The red blood cells were then pelleted by slow speed centrifugation and the red blood cells re-suspended in 10 volumes of PBS. This washing step was repeated 4 more times and the red blood cells finally resuspended in a volume of plasma from Hemophilia patients with less than 1% of normal levels of FVIII (GeorgeKing Bio-Medical, Overland Park, Kans.) to generate a total volume equal to the initial blood volume such that the RBC density was equal to that of normal whole blood. BDD and RBC targeted FVIII molecules were then spiked into RBC suspension in HemA plasma at 1 IU/mL, and incubated at room temperature for 2-3 hours with gentle rotation. […] An additional control was performed in which BDD or RBC targeted FVIII molecules were added at 11U/ml into the same human hemophilia A plasma and incubated for 5 minutes and 180 mins. These samples were used to determine the input FVIII activity in the presence of plasma which was used to calculate the percentage of the molecule that was bound to RBC. All plasma samples were then assayed together for FVIII activity using the Coatest SP assay (DiaPharma, Columbus, Ohio). The assay was performed following the manufacturer's instructions in a 96-well plate format. […] The plate was incubated at 37° C. for 10 minutes with shaking between each reagent addition. […] The amount of FVIII activity in the plasma reflects the amount of unbound FVIII. The FVIII activity of the same molecule spiked in to Hemophilia A plasma alone (no RBC) and incubated for 5 minutes was normalized to 100%.

[10] = biological target: T2, human glycophorin A on human red blood …; test: partition to human RBC, human HemA plasma, 60 min
[11] = biological target: T1, Cynomolgus monkey glycophorin A on …; test: partition to Cyno RBC, human HemA plasma, 120 min;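 note: FVIII fusion spiked at 1 IU/mL into RBC suspension at whole-blood density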
[12] = biological target: T2, human glycophorin A on human red blood …; test: partition to human RBC, human HemA plasma, 120 min
[13] = biological target: T2, human glycophorin A on human red blood …; test: partition to human RBC, human HemA plasma, 120 min; remark: listed apart in the source
Description: as §2

[14] = biological target: T2, human glycophorin A on human red blood …; test: partition to human RBC, vWF deficient plasma, 1 min
[15] = biological target: T2, human glycophorin A on human red blood …; test: partition to human RBC, vWF deficient plasma, 5 min
[16] = biological target: T2, human glycophorin A on human red blood …; test: partition to human RBC, vWF deficient plasma, 15 min
[17] = biological target: T2, human glycophorin A on human red blood …; test: partition to human RBC, vWF deficient plasma, 30 min
[18] = biological target: T2, human glycophorin A on human red blood …; test: partition to human RBC, vWF deficient plasma, 60 min
[19] = biological target: T2, human glycophorin A on human red blood …; test: partition to human RBC, vWF deficient plasma, 120 min

- % bound to Cyno RBC [1]: 53.4%
- % bound to Cyno RBC [2]: 65.7%
- percentage bound to human RBC [3]: 55.2%
- percentage bound to human RBC [4]: 74.3%
- % bound to Cyno RBC [5]: 75.6%
- % bound to Cyno RBC [6]: 78.1%
- % bound to Cyno RBC [7]: 84.5%
- percentage bound to human RBC [8]: 86.6%
- percentage bound to human RBC [9]: 90.4%
- percentage bound to human RBC [10]: 93.5%
- % bound to Cyno RBC [11]: 86.8%
- percentage bound to human RBC [12]: 95.2%
- percentage bound to human RBC [13]: 95.2%
B1: TPP-9976 FVIII-scFv fusion protein (other)
chain: ATRRYYLGAVELSWDYMQSDLGELPVDARFPPRVPKSFPFNTSVVYKKTLFVEFTDHLFNIAKPRPPWMGLLGPTIQAEVYDTVVITLKNMASHPVSLHAVGVSYWKASEGAEYDDQTSQREKEDDKVFPGGSHTYVWQVLKENGPMASDPLCLTYSYLSHVDLVKDLNSGLIGALLVCREGSLAKEKTQTLHKFILLFAVFDEGKSWHSETKNSLMQDRDAASARAWPKMHTVNGYVNRSLPGLIGCHRKSVYWHVIGMGTTPEVHSIFLEGHTFLVRNHRQASLEISPITFLTAQTLLMDLGQFLLFCHISSHQHDGMEAYVKVDSCPEEPQLRMKNNEEAEDYDDDLTDSEMDVVRFDDDNSPSFIQIRSVAKKHPKTWVHYIAAEEEDWDYAPLVLAPDDRSYKSQYLNNGPQRIGRKYKKVRFMAYTDETFKTREAIQHESGILGPLLYGEVGDTLLIIFKNQASRPYNIYPHGITDVRPLYSRRLPKGVKHLKDFPILPGEIFKYKWTVTVEDGPTKSDPRCLTRYYSSFVNMERDLASGLIGPLLICYKESVDQRGNQIMSDKRNVILFSVFDENRSWYLTENIQRFLPNPAGVQLEDPEFQASNIMHSINGYVFDSLQLSVCLHEVAYWYILSIGAQTDFLSVFFSGYTFKHKMVYEDTLTLFPFSGETVFMSMENPGLWILGCHNSDFRNRGMTALLKVSSCDKNTGDYYEDSYEDISAYLLSKNNAIEPRSFSQNGGGGSTGGTGGSSGGGTGSGGGGTGGSGGTDIQLTQSPSFLSASVGDRVTITCRASSSVRYIYWFQQKPGKAPKLLIYATSFRQSGVPSRFSGSGSGTEYTLTISSLQPEDFATYYCHQRNSFPYTFGQGTKLEIKGGGGSGGGGSGGGGSGGGGSEVQLVQSGAEVKKPGASVKVSCKASGYTFTTYAIHWVRQAPGQGLEWMGYINPSSGYTRYNPKFKGRVTMTRDKSTSTAYMELRSLRSDDTAVYYCWTGTRDYWGQGTTVTVSSGGGGDIQLTQSPSFLSASVGDRVTITCRASSSVRYIYWFQQKPGKAPKLLIYATSFRQSGVPSRFSGSGSGTEYTLTISSLQPEDFATYYCHQRNSFPYTFGQGTKLEIKGGGGSGGGGSGGGGSGGGGSEVQLVQSGAEVKKPGASVKVSCKASGYTFTTYAIHWVRQAPGQGLEWMGYINPSSGYTRYNPKFKGRVTMTRDKSTSTAYMELRSLRSDDTAVYYCWTGTRDYWGQGTTVTVSSGGGGDENQSPRSFQKKTRHYFIAAVERLWDYGMSSSPHVLRNRAQSGSVPQFKKVVFQEFTDGSFTQPLYRGELNEHLGLLGPYIRAEVEDNIMVTFRNQASRPYSFYSSLISYEEDQRQGAEPRKNFVKPNETKTYFWKVQHHMAPTKDEFDCKAWAYFSDVDLEKDVHSGLIGPLLVCHTNTLNPAHGRQVTVQEFALFFTIFDETKSWYFTENMERNCRAPCNIQMEDPTFKENYRFHAINGYIMDTLPGLVMAQDQRIRWYLLSMGSNENIHSIHFSGHVFTVRKKEEYKMALYNLYPGVFETVEMLPSKAGIWRVECLIGEHLHAGMSTLFLVYSNKCQTPLGMASGHIRDFQITASGQYGQWAPKLARLHYSGSINAWSTKEPFSWIKVDLLAPMIIHGIKTQGARQKFSSLYISQFIIMYSLDGKKWQTYRGNSTGTLMVFFGNVDSSGIKHNIFNPPIIARYIRLHPTHYSIRSTLRMELMGCDLNSCSMPLGMESKAISDAQITASSYFTNMFATWSPSKARLHLQGRSNAWRPQVNNPKEWLQVDFQKTMKVTGVTTQGVKSLLTSMYVKEFLISSSQDGHQWTLFFQNGKVKVFQGNQDSFTPVVNSLDPPLLTRYLRIHPQSWVHQIALRMEVLGCEAQDLY
notes: also called PPB 7998

- % bound to Cyno RBC [1]: 26.4%
- % bound to Cyno RBC [2]: 46%
- percentage bound to human RBC [3]: 31.4%
- percentage bound to human RBC [4]: 53.8%
- % bound to Cyno RBC [5]: 54%
- % bound to Cyno RBC [6]: 58%
- % bound to Cyno RBC [7]: 68%
- percentage bound to human RBC [8]: 71.5%
- percentage bound to human RBC [9]: 78.9%
- percentage bound to human RBC [10]: 84.1%
- % bound to Cyno RBC [11]: 71%
- percentage bound to human RBC [12]: 86.7%
- percentage bound to human RBC [13]: 86.7%
- percentage bound to human RBC [14]: 26%
- percentage bound to human RBC [15]: 44.9%
- percentage bound to human RBC [16]: 53.8%
- percentage bound to human RBC [17]: 57.3%
- percentage bound to human RBC [18]: 64.3%
- percentage bound to human RBC [19]: 72.7%
B2: TPP-9901 FVIII-scFv fusion protein (other)
chain: ATRRYYLGAVELSWDYMQSDLGELPVDARFPPRVPKSFPFNTSVVYKKTLFVEFTDHLFNIAKPRPPWMGLLGPTIQAEVYDTVVITLKNMASHPVSLHAVGVSYWKASEGAEYDDQTSQREKEDDKVFPGGSHTYVWQVLKENGPMASDPLCLTYSYLSHVDLVKDLNSGLIGALLVCREGSLAKEKTQTLHKFILLFAVFDEGKSWHSETKNSLMQDRDAASARAWPKMHTVNGYVNRSLPGLIGCHRKSVYWHVIGMGTTPEVHSIFLEGHTFLVRNHRQASLEISPITFLTAQTLLMDLGQFLLFCHISSHQHDGMEAYVKVDSCPEEPQLRMKNNEEAEDYDDDLTDSEMDVVRFDDDNSPSFIQIRSVAKKHPKTWVHYIAAEEEDWDYAPLVLAPDDRSYKSQYLNNGPQRIGRKYKKVRFMAYTDETFKTREAIQHESGILGPLLYGEVGDTLLIIFKNQASRPYNIYPHGITDVRPLYSRRLPKGVKHLKDFPILPGEIFKYKWTVTVEDGPTKSDPRCLTRYYSSFVNMERDLASGLIGPLLICYKESVDQRGNQIMSDKRNVILFSVFDENRSWYLTENIQRFLPNPAGVQLEDPEFQASNIMHSINGYVFDSLQLSVCLHEVAYWYILSIGAQTDFLSVFFSGYTFKHKMVYEDTLTLFPFSGETVFMSMENPGLWILGCHNSDFRNRGMTALLKVSSCDKNTGDYYEDSYEDISAYLLSKNNAIEPRSFSQNGGGGSTGGTGGSSGGGTGSGGGGTGGSGGTDIQLTQSPSFLSASVGDRVTITCRASSSVRYIYWFQQKPGKAPKLLIYATSFRQSGVPSRFSGSGSGTEYTLTISSLQPEDFATYYCHQRNSFPYTFGQGTKLEIKGGGGSGGGGSGGGGSGGGGSEVQLVQSGAEVKKPGASVKVSCKASGYTFTTYAIHWVRQAPGQGLEWMGYINPSSGYTRYNPKFKGRVTMTRDKSTSTAYMELRSLRSDDTAVYYCWTGTRDYWGQGTTVTVSSGGGGDENQSPRSFQKKTRHYFIAAVERLWDYGMSSSPHVLRNRAQSGSVPQFKKVVFQEFTDGSFTQPLYRGELNEHLGLLGPYIRAEVEDNIMVTFRNQASRPYSFYSSLISYEEDQRQGAEPRKNFVKPNETKTYFWKVQHHMAPTKDEFDCKAWAYFSDVDLEKDVHSGLIGPLLVCHTNTLNPAHGRQVTVQEFALFFTIFDETKSWYFTENMERNCRAPCNIQMEDPTFKENYRFHAINGYIMDTLPGLVMAQDQRIRWYLLSMGSNENIHSIHFSGHVFTVRKKEEYKMALYNLYPGVFETVEMLPSKAGIWRVECLIGEHLHAGMSTLFLVYSNKCQTPLGMASGHIRDFQITASGQYGQWAPKLARLHYSGSINAWSTKEPFSWIKVDLLAPMIIHGIKTQGARQKFSSLYISQFIIMYSLDGKKWQTYRGNSTGTLMVFFGNVDSSGIKHNIFNPPIIARYIRLHPTHYSIRSTLRMELMGCDLNSCSMPLGMESKAISDAQITASSYFTNMFATWSPSKARLHLQGRSNAWRPQVNNPKEWLQVDFQKTMKVTGVTTQGVKSLLTSMYVKEFLISSSQDGHQWTLFFQNGKVKVFQGNQDSFTPVVNSLDPPLLTRYLRIHPQSWVHQIALRMEVLGCEAQDLYGGGSGGGGSGLVPRGSGGGSGGGGSGDIQLTQSPSFLSASVGDRVTITCRASSSVRYIYWFQQKPGKAPKLLIYATSFRQSGVPSRFSGSGSGTEYTLTISSLQPEDFATYYCHQRNSFPYTFGQGTKLEIKGGGGSGGGGSGGGGSGGGGSEVQLVQSGAEVKKPGASVKVSCKASGYTFTTYAIHWVRQAPGQGLEWMGYINPSSGYTRYNPKFKGRVTMTRDKSTSTAYMELRSLRSDDTAVYYCWTGTRDYWGQGTTVTVSS
notes: also called PPB 7855
